Laboratory results published in US20250076311A1 (Chugai, published 2025).
Where a chain is given by its changes, count along the chain named. Names may count otherwise.

T1: cynomolgus monkey FcγRIIa3 extracellular domain with C-terminal His-tag (cynomolgus monkey)
T1 construct: also called cyno FcgRIIa3; cynoFcγRIIa3
T1 chain: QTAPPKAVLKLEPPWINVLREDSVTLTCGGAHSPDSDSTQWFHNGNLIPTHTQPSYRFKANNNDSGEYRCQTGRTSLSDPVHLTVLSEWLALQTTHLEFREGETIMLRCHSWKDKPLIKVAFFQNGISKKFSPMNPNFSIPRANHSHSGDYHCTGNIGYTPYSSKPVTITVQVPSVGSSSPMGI

T2: cynomolgus monkey FcγRIIa2 extracellular domain with C-terminal His-tag (cynomolgus monkey)
T2 construct: also called cyno FcgRIIa2; cynoFcγRIIa2; not shown: His-tag added to C-terminus
T2 chain: T1 chain with I127K, K130N, P133H, R142Q

T3: cynomolgus monkey FcγRIIa3 extracellular domain with C-terminal His-tag (cynomolgus monkey)
T3 construct: also called cyno FcgRIIa3; cynoFcγRIIa3; not shown: His-tag added to C-terminus
T3 chain: T1 chain

T4: cynomolgus monkey FcγRIIb extracellular domain with C-terminal His-tag (cynomolgus monkey)
T4 construct: also called cyno FcgRIIb; cynoFcγRIIb; not shown: His-tag added to C-terminus
T4 chain: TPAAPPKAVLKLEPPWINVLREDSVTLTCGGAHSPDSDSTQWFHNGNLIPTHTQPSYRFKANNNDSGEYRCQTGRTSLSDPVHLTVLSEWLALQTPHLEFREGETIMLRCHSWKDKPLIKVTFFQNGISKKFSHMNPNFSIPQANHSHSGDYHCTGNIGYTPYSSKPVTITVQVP

T5: human FcγRIIaR extracellular domain with C-terminal His-tag (human, UniProt P12318 34-217)
T5 construct: also called human FcgRIIaR; FcγRIIa (type R); not shown: His-tag added to C-terminus
T5 chain: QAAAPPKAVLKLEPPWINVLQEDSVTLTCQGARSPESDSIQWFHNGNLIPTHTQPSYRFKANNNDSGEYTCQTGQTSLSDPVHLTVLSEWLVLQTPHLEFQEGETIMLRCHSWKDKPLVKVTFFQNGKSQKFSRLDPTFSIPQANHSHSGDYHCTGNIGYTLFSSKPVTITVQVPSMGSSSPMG

T6: human FcγRIIb extracellular domain with C-terminal His-tag (human, UniProt P31994 43-217)
T6 construct: also called human FcgRIIb; not shown: His-tag added to C-terminus
T6 sequence: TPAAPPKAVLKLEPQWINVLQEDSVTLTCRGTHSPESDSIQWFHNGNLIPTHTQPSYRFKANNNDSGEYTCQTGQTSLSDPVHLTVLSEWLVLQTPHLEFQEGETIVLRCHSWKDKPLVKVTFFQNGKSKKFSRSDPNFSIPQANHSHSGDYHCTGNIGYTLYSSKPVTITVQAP

T7: human FcγRIIaH extracellular domain, His-tagged (human, UniProt P12318 34-217)
T7 construct: also called human FcgRIIaH; FcγRIIa type H
T7 sequence: T5 chain with R134H

T8: human FcγRIIaR extracellular domain, His-tagged (human, UniProt P12318 34-217)
T8 construct: also called human FcgRIIaR; FcγRIIa type R
T8 chain: T5 chain

T9: human FcγRIIb extracellular domain, His-tagged (human, UniProt P31994 43-217)
T9 construct: also called human FcgRIIb
T9 sequence: T6 sequence

B1: M103205H795-MY468/M103202L889-SK1 (antibody)
chain 1: QVTLKESGPVLVKPTETLTLTCTVSGIDLSHDDISWVRQAPGKGLEWVGIISYAGSTYYASWAKGRLTISKDTSKNQVVLTMTNMDPVDTATYYCARGVPAYSHGGDLWGQGTLVTVSSASTKGPSVFPLAPSSKSTSGGTAALGCLVKDYFPEPVTVSWNSGALTSGVHTFPAVLQSSGLYSLSSVVTVPSSSLGTQTYICNVNHKPSNTKVDKKVEPKSCDKTHTCPPCPNPELLTGPSVFLFPPKPKDTLMISRTPEVTCVVVDVSDEDPEVKFNWYVDGVEVHNAKTKPREEQYNSTYRVVSVLTVLHQDWLNGKEYKCKVSNKALPKPIEKTISKAKGQPREPQVYTLPPSREEMTKNQVSLTCLVKGFYPSDIAVEWESNGQPENNYKTTPPVLDSDGSFFLYSKLTVDKSRWQQGNVFSCSVMHEALHNHYTQKSLSLSP
chain 2: DIVMTQSPATLSLSPGERATLSCTSSQSVYHANWLSWFQQKPGQPPKLLIYWASTLAYGVPSRFSGSGSGTDFTLTISSLQPEDAATYYCAGGYGGGRYAFGQGTKVEIKRTVAAPSVFIFPPSDEQLKSGTASVVCLLNNFYPREAKVQWKVDNALQSGNSQESVTEQDSKDSTYSLSSTLTLSKADYEKHKVYACEVTHQGLSSPVTKSFNRGEC
B2: M103205H795-MY452/M103202L889-SK1 (antibody, human IgG1, kappa)
heavy: B1 chain 1 with N233A, P234Q
light: B1 chain 2
notes: Substitutions in EU numbering on SG1
B3: M103205H795-MY171/M103202L889-SK1 (antibody, human IgG1, kappa, name in EU numbering)
heavy: B1 chain 1 with N233A, T238N, D270E, K332A, P398F
light: B1 chain 2
notes: EU numbering
B4: M103205H795-MY176/M103202L889-SK1 (antibody, human IgG1, kappa, name in EU numbering)
heavy: B1 chain 1 with N233A, T238N, D270E, K332A, P398L
light: B1 chain 2
notes: EU numbering
B5: M103205H795-MY168/M103202L889-SK1 (antibody, human IgG1, kappa, name in EU numbering)
heavy: B1 chain 1 with N233A, T238N, D270E, K332A, P398A
light: B1 chain 2
notes: EU numbering
B6: M103205H795-MY175/M103202L889-SK1 (antibody, human IgG1, kappa, name in EU numbering)
heavy: B1 chain 1 with N233A, T238N, D270E, K332A, P398K
light: B1 chain 2
notes: EU numbering
B7: M103205H795-MY052/M103202L889-SK1 (antibody, human IgG1, kappa, name in EU numbering)
heavy: B1 chain 1 with N233A, T238N, D270E, K332A, P398M
light: B1 chain 2
notes: substitutions in EU numbering, introduced into M103205H795-SG1
B8: GpH7-B3 G236N / GpL16-k0 (antibody, human IgG1, kappa)
heavy: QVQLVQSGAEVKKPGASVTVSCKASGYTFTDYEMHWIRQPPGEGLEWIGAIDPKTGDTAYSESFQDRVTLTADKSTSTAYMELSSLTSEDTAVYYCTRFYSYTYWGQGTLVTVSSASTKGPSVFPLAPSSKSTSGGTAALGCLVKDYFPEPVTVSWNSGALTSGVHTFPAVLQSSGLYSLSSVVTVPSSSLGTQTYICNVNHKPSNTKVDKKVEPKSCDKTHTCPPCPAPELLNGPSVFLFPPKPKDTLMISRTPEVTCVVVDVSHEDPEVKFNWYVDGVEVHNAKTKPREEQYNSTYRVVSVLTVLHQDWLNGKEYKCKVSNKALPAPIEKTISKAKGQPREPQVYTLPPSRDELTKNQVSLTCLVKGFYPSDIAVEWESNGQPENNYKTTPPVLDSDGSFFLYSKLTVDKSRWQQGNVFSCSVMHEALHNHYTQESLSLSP
light: DIVMTQSPLSLPVTPGEPASISCQASESLVHSNRNTYLHWYLQKPGQSPQLLIYKVSNRFSGVPDRFSGSGSGTDFTLKISRVEAEDVGVYYCSQNTHVPPTFGQGTKVEIERTVAAPSVFIFPPSDEQLKSGTASVVCLLNNFYPREAKVQWKVDNALQSGNSQESVTEQDSKDSTYSLSSTLTLSKADYEKHKVYACEVTHQGLSSPVTKSFNRGEC
notes: also called B3 variant G236N
B9: GpH7-B3 N325E / GpL16-k0 (antibody, human IgG1, kappa)
heavy: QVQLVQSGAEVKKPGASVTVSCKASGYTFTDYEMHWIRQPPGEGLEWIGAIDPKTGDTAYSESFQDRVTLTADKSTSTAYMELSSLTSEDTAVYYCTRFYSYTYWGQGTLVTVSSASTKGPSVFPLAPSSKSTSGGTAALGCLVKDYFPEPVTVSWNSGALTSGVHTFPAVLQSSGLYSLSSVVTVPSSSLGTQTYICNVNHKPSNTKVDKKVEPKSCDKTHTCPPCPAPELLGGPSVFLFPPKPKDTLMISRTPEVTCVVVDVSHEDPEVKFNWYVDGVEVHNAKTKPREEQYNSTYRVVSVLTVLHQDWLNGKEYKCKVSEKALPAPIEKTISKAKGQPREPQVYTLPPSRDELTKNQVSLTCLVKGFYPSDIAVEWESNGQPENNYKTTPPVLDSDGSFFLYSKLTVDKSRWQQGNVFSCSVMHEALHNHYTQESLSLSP
light: B8 light
notes: also called B3 variant N325E
B10: GpH7-B3 S267H / GpL16-k0 (antibody, human IgG1, kappa)
heavy: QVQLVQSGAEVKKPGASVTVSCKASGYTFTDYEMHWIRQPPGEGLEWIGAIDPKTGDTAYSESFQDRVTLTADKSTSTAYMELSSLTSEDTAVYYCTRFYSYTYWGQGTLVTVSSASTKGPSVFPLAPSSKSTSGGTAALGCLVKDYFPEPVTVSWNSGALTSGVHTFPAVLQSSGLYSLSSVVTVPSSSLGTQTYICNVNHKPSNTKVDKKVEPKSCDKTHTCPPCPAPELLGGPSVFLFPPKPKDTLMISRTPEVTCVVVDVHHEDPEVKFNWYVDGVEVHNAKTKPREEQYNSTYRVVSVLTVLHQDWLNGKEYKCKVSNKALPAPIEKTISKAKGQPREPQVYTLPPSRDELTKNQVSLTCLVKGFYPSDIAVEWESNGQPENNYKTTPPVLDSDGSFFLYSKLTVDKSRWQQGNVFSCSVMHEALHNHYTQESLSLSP
light: B8 light
notes: also called B3 variant S267H
B11: GpH7-B3 G237D / GpL16-k0 (antibody, human IgG1, kappa)
heavy: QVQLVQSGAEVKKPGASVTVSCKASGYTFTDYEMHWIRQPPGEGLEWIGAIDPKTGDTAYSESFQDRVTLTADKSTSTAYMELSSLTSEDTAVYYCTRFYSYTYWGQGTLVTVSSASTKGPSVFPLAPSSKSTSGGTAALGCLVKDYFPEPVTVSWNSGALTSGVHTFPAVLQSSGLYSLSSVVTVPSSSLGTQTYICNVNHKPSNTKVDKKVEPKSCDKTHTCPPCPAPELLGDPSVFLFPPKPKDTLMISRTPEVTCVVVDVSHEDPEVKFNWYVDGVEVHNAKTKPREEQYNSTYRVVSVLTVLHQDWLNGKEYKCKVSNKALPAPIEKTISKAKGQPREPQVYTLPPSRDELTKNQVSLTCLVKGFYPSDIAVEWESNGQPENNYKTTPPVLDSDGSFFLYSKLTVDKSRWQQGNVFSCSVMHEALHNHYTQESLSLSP
light: B8 light
notes: also called B3 variant G237D
B12: GpH7-B3 P238Q / GpL16-k0 (antibody, human IgG1, kappa)
heavy: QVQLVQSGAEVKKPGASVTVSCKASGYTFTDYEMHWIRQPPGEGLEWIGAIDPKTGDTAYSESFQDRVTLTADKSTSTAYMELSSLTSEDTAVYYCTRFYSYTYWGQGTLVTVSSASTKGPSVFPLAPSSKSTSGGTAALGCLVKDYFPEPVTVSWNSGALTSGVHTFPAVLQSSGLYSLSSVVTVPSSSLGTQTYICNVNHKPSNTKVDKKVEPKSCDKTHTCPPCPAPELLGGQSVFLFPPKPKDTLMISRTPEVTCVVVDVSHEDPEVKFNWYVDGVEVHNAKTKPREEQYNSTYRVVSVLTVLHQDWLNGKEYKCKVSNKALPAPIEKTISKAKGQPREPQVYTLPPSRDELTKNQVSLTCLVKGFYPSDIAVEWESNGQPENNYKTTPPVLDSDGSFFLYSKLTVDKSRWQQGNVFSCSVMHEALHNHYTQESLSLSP
light: B8 light
notes: also called B3 variant P238Q
B13: GpH7-B3 A327I / GpL16-k0 (antibody, human IgG1, kappa)
heavy: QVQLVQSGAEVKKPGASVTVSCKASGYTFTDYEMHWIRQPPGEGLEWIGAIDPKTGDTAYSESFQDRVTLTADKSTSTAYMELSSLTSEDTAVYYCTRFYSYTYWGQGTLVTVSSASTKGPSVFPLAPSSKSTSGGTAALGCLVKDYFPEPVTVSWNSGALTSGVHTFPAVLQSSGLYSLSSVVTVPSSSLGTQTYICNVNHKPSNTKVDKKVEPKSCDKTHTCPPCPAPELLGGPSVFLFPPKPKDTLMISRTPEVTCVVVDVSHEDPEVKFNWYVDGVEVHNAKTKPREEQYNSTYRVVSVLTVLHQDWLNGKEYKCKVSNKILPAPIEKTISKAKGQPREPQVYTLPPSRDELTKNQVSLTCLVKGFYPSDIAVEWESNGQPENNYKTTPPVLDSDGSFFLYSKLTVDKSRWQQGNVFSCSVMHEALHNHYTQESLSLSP
light: B8 light
notes: also called B3 variant A327I
B14: GpH7-B3 N325L / GpL16-k0 (antibody, human IgG1, kappa)
heavy: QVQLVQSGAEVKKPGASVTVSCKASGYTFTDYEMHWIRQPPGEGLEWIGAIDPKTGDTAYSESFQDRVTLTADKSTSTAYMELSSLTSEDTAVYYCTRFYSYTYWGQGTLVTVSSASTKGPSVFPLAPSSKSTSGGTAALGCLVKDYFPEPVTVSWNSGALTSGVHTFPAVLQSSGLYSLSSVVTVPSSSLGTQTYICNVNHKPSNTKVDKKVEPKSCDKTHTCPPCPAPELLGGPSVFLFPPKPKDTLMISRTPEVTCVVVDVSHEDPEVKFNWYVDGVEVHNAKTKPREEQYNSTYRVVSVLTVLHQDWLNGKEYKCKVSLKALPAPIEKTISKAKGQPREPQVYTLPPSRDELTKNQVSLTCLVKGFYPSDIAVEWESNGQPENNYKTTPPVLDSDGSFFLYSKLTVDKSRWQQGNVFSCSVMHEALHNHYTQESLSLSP
light: B8 light
notes: also called B3 variant N325L
B15: GpH7-B3 P238E / GpL16-k0 (antibody, human IgG1, kappa)
heavy: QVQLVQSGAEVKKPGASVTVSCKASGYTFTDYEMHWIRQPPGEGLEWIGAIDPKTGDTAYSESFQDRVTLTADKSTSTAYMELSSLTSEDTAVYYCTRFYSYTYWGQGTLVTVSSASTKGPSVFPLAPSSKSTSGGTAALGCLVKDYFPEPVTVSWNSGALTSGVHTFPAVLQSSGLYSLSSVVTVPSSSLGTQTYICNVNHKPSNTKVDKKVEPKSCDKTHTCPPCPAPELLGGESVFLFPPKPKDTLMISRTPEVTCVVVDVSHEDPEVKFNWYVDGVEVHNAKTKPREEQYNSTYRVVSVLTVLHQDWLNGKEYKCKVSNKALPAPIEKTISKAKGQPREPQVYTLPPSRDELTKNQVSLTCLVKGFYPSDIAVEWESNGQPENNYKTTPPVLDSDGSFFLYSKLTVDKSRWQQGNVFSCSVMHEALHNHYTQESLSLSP
light: B8 light
notes: also called B3 variant P238E
B16: GpH7-B3 S267L / GpL16-k0 (antibody, human IgG1, kappa)
heavy: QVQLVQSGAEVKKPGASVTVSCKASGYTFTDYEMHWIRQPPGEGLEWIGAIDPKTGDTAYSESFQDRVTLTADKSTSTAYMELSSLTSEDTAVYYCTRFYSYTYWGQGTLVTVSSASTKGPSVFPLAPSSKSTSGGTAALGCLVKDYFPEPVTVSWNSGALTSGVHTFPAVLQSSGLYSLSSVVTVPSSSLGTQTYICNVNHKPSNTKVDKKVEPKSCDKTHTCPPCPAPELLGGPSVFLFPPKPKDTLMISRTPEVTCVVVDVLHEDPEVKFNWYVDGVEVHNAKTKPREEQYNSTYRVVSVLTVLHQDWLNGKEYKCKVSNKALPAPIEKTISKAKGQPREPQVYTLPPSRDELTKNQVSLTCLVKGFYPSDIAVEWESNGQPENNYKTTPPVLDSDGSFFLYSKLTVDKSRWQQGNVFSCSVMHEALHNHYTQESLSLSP
light: B8 light
notes: also called B3 variant S267L

Target: T1, cynomolgus monkey FcγRIIa3 …
Assay: SPR (Biacore), KD of SG1 / KD of variant
Procedure: The kinetic analysis of interactions between these antibodies and FcγR was carried out using BIACORE® T200 or BIACORE® 4000 (GE Healthcare). HBS-EP+ (GE Healthcare) was used as the running buffer, and the measurement temperature was set to 25° C. […] After the measurement, the antibody captured on the chip was washed off by allowing reaction with 10 mM glycine-HCl, pH1.5 and 25 mM NaOH so that the chip was regenerated and used repeatedly. The sensorgrams obtained as measurement results were analyzed by the 1:1 Langmuir binding model using the BIACORE® Evaluation Software to calculate the binding rate constant ka (L/mol/s) and dissociation rate constant kd (1/s), and the dissociation constant KD (mol/L) was calculated from these values. […] Regarding such interactions, KD values were calculated using the following 1:1 binding model described in BIACORE® T100 Software Handbook BR1006-48 Edition AE.

KD fold (SG1 = 1) [fold] | Binder
3.5 | B1
2.6 | B2

Target: T2, cynomolgus monkey FcγRIIa2 …
Assay: SPR Biacore, antibody captured, FcgR analyte

Kd [nM] | Binder
2300 | B3

Target: T3, cynomolgus monkey FcγRIIa3 …
Assay: SPR Biacore, antibody captured, FcgR analyte

Kd [µM] | KD fold (SG1 = 1) [fold] | Binder
6 |  | B4
1 |  | B5
 | 2.3 | B6
9.2 | 1.5 | B3

Target: T4, cynomolgus monkey FcγRIIb extracellular …
Assay: SPR Biacore, antibody captured, FcgR analyte

KD fold (SG1 = 1) [fold] | Kd [µM] | Binder
3.5 |  | B7
1 |  | B4
 | 0.012 | B5
1.5 | 9.8 | B3

Each binder was assayed against T10, cynomolgus monkey FcγRIIIaS extracellular domain with C-terminal His-tag (cynomolgus monkey, UniProt A3RFZ7 21-206 (rhesus entry)) (assay: SPR Biacore, antibody captured, FcgR analyte).
T10 construct: also called cyno FcgRIIIaS; cynoFcγRIIIaS; not shown: His-tag added to C-terminus
T10 sequence (A3RFZ7 21-206): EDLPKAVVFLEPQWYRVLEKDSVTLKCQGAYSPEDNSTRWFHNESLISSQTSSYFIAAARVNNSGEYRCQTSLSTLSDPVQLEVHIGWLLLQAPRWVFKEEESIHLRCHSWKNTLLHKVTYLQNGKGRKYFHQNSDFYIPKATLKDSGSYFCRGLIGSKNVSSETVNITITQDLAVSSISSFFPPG

KD fold (SG1 = 1) [fold] | Kd [nM] | Binder
0.24 | 1500 | B7
0.16 | 2200 | B4
0.08 | 4500 | B5
0.14 | 2600 | B6
0.11 | 3300 | B3

Target: T5, human FcγRIIaR extracellular domain …
Assay: SPR Biacore, antibody captured, FcgR analyte

KD fold (SG1 = 1) [fold] | Kd [nM] | Binder
0.1 |  | B7
0.1 |  | B4
 | 2800 | B5
 | 1500 | B6
 | 2300 | B3

These binders were tested against T6, human FcγRIIb extracellular domain with … (assay: SPR Biacore, antibody captured, FcgR analyte).

KD fold (SG1 = 1) [fold] | Kd [nM] | Binder
6.5 | 700 | B4
 | 1200 | B3

The binders below were run against T11, human FcγRIIIaV extracellular domain with C-terminal His-tag (human, UniProt P08637 17-208) (assay: SPR Biacore, antibody captured, FcgR analyte).
T11 construct: also called human FcgRIIIaV; not shown: His-tag added to C-terminus
T11 sequence (P08637 17-208 F176V): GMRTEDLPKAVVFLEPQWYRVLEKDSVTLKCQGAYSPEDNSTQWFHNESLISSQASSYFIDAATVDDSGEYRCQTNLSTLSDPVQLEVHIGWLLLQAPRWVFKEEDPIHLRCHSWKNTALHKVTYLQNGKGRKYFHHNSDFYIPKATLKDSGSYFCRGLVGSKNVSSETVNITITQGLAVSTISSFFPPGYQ

Kd [µM] | Binder
6.2 | B4

The binders below were run against T7, human FcγRIIaH extracellular domain, … (assay: SPR (Biacore), 25C, FcgR bound per antibody captured).

Binding to human FcgRs (parent B3 = 100) | Binder
54 | B8
49 | B9
27 | B10
74 | B11
19 | B12
37 | B13
93 | B14
21 | B15
63 | B16

Target: T8, human FcγRIIaR extracellular domain, …
Assay: as above

Binding to human FcgRs (parent B3 = 100) | Binder
81 | B8
13 | B9
3 | B10
0 | B11
4 | B12
12 | B13
13 | B14
2 | B15
3 | B16

The binders below were run against T9, human FcγRIIb extracellular domain, … in the same assay as above.

Binding to human FcgRs (parent B3 = 100) | Binder
75 | B8
40 | B9
42 | B10
95 | B11
43 | B12
46 | B13
112 | B16

What follows are binders tested against T12, human FcγRIIIaV extracellular domain, His-tagged (human, UniProt P08637 17-208) in the same assay as above.
T12 construct: also called human FcgRIIIaV
T12 sequence (P08637 17-208 F176V): as above

Binding to human FcgRs (parent B3 = 100) | Binder
4 | B9
1 | B10
0 | B11
-1 | B12
0 | B14
1 | B15
2 | B16
